Assay results from the DeepSol protein solubility set.

Assay: soluble on expression in E. coli; label from the status in PepcDB or PDB records

Sequence	soluble on expression in E. coli
MGSDKIHHHHHHVPRVRTVKEDHRAGVWCARGMTGLLRRLHAVLDEFNAAYPWDHNAYYHRWILRQLPPRFGRALDAGSGSGDLARLLAGRADRVCGIDIDPVITARARELTDPAAPVVFTVGDVLTDTPAGPYDVVTCVAAVHHMPLAEALTCFRDLLAPGGTLVVVGLYRAHDPIDVLLDGVSVVLNPLIGWVRHRGRRAPRPVSMTAVTTPATMTFAEIVAEARRVLPRARLRRRLLWRYTLVWRKP	not soluble
MKVVLQRVTRAAVTVGDEVVGSIGRGLCVLVGVHRDDTEEDMKYIIRKILNLRVFPASEQKPWDKSVMDLDLEVLSVSQFTLYGQFKGNKLDFHTAMAPTEASKFYASFLEAMKKAYKADKIQDGKFAAMMSVDIVNDGPVTVTFDSKEK	not soluble
MPLKAYRPPEDPGLWDTYLEWLERALKVAEAHPTTLEYLAHPKRLVTLSLPVVMDDGKVRIFQGYRVVHDIARGPAKGGVRLDPGVTLGQTAGLAAWMTLKAAVYDLPFGGAAGGIAVDPKGLSPQELERLVRRYTAELVGLIGPDSDILGPDLGADQQVMAWIMDTYSMTVGSTVPGVVTGKPHALGGSEGRDDAAGLGALLVLEALAKRRGLDLRGARVVVQGLGQVGAAVALHAERLGMRVVAVATSMGGMYAPEGLDVAEVLSTYEATGFLPRLDLAPEEVFGLEAEVLVLAAREGALDGDRARQVQAQAVVKVANFGLTPEAEAYLLGKGALVVPDLLSGGGGLLASYLEWVQDLNMFFWSPEEVRERFETRVARVVDAVCRRAERGGLDLRMGALALALERLDEATRLRGVYP	soluble
MGSDKIHHHHHHMFSQHSFDFLNSLAVNNDREWFKTNQQQYEDQVRTPALQFIEAMQGPILGLSPRFTAVAKKVGGSLMRPQRDSRFSKDKTPYKTNVGIQFKHFQAKDVHAPGFYVHIANDECFIAAGIWHPESKDLNAIRHCIDENPNAYQKALTQLSQAGFELTGDSLIRPPRGFDKHHPMIDELRRKDFIAIKPISSEQVCQADFIEFCTQEYQHTRALMAYLCFALDLDF	not soluble
NNDITAENNNIYKAAKDVTTSLSKVLKNIN	soluble
MIAYRSNQGVTRQRQQTKVFKLVSTYDKVAVKNAIRAAYRQVFERDLEPYIINSEFTALESKLSNNEINVKEFIEGLGTSELYMKEFYAPYPNTKVIEMGTKHFLGRAPLNQKEIQQYNQILASQGLKAFIGAMVNGMEYLQTFGEDTVPYRRFPTLPALEHHHHHH	not soluble
MGSDKIHHHHHHENLYFQGMTQLELLLERIIDRVNVNLRHQKFDVGDYVRRQTPHLHYSKFYAFYGLSADDPVHFHFKNSSLAGSYLLGRVNVLHSALYKSDIRGDELKRKGQHFVCDGKMIPLHDDEVITIKDSFLNKTLVHSNSHDPESPEEFTIRNTVAMPYANIHGSLTEGSFIGSFATVDLSTIHNSVVRYFSYVQTGELVGKCVEPGQIWIKSGDELEFHYSFDKAILDKYISQEAGSCPTGVLMEFVEVRQEDFEEVFASGHMASGAGSASGASVSGYAVIKGDTVIGENVLVSQRAYLDNAWMGKGSNAQENCYIINSRLERNCVTAHGGKIINAHLGDMIFTGFNSFLQGSESSPLKIGDGCVVMPHTIIDLEEPLEIPAGHLVWGYIRNKADLAAHSISFEEFAKVDGEVTMGRMTFRGKGGPFLDSFKKRIKRILSENGAFFDGSEGTGHAQKGKNFTFNIIQPYQDGDPRGMYPTILIQPNNGS	soluble
LTPIVGPSNFRVQVAADMDFSQVEETREILDNAPVVRNEHTIQNNSIDQIALGVPGSLSNQPPVTGEAATNDSQNTNARSEVNRQYAVGSSVRRTQYQQGQIEKLSVSVLLNSKASPDGVAWSDADKAQISTMITDAVGISAARGDSLSLMSFNF	not soluble
METLTVHAPSPSTNLPSYGNGAFSLSAPHVPGAGPLLVQVVYSFFQSPNMCLQALTQLEDYIKKHGASNPLTLQIISTNIGYFCNADRNLVLHPGISVYDAYHFAKPAPSQYDYRSMNMKQMSGNVTTPIVALAHYLWGNGAERSVNIANIGLKISPMKINQIKDIIKSGVVGTFPVSTKFTHATGDYNVITGAYLGNITLKTEGTLTISANGSWTYNGVVRSYDDKYDFNASTHRGIIGESLTRLGAMFSGKEYQILLPGEIHIKESGKRAAHHHHHH	soluble
MGSDKIHHHHHHMKNDKNLLQHFSREEREFVEKIMDMCQQVEDTYSYRLTHFLHPRQDEIVCKIANYYQLQTFSSRDLVSTEHSRVIIAPTYYELDIKHFELTALHLSYARKFHTLSHSQVLGTFLNQLGIKREYLGDILIDDERLIVFIDQKFGQIALQSITKVARVPVKGKEEEWTTVRLPIGQEWRSKDVLVSSMRLDKLISVAFNLSRATANKLIEAGHVKLDYVLTEQTSKLVEIGQLISVRRYGRVRLNEFLGFSKQGKIKLKLDIVKT	not soluble
MDSGFTLRAPRNDKRRNPMPAILGTGEHRYRVVENFAKLPDGWQLTDVAAVAVDSLDRVYVFNRGAHPMVVLDREGNFLRSWGEGLFSRAHGLHIDADDNLYCTDDGDHTVRKCTSDGKVLLTIGIPAKPAPFMSGEPFHRCTHTALSPKGEIYVSDGYGNARVHKFTPDGKLIKSWGEPGTDPGQFNIVHNIATDSDGWVYVADRENHRVQVFNGEGKYETQWNNLHRPCALCCCGGRSPTFVIGELGPGLDINRNVPNLGPRLSIVDAKGNRIARLGGEEGPGVASGKFLAPHGIALDSKGDIYVGEVGVTNWATSFPDQEMPAVVRATRCLQKLERVRELEHHHHHH	not soluble
MAHHHHHHMQQRKTNKLFYPVAFLHFFLGEDNERRMFRRLSTSTLAAAAVRFYTPSESLKKLYTSDFDKTEFPLSIVPSDSVLFAKFLYKAAEPNNSFDAILKDFQTIAAASSSLPIFWERTAVVEDVAEFKKLSEPMFFTLVWMQKNGMLDLIPEVSEIYETYVNAKMKRIVAKIYVAPGKEGEVGEAKRVAQELHKEAKELDGYTLVFKTVVDRSIVTGFAVELAGQYVNRAEGHKSHAPAADEADYTTIPAPRLPKTVWEDNIETEVLCRYLESLAEYDAEEAKHGV	not soluble
MSGPEELEAGASDSNAGGSSRQGQEQERVEPVLEGVPQPNDQESADEDLTARQPPIQPQVPNASDNLQVPPNLEYLIAVNPSQLITTIQIGAEVARLEELEDEYRQELELIRMTESLGEELLQKENELRSRAGYLGRLDVLENRRNYEDEAAENLAIRTVQNRVLLLRRARAELYERERIARKTFIWRLRRFKNPTDQSVNTWMETLNDRLNRVANSWERRREPHEQAIRDYERLVATRQRTEEDRRRERASNRAGPSNQEDYDSEDEDEHHVDELPDLLELLSLVVNPVIGGGGISTNRAEYLNPRGTEGLGADDPDLNDSGGTVYQSDEEESEDEAEIDHQEGPSNWRPKRPRRDDDEGGSGSSASMWNAPSTSSQALGRSC	not soluble
MSVEPNHYLEITRSHVHQIYRELETSGKVITVDLVRKPYYDVDEDNKTLLQVFREHNEQSRKLIGKDFISKTVQRYETTTRYLEEFIKKEYQLSDIALNNLEANFISKFDAFLKIEKGCAQNSAITRLKNLKKIIRIALENDWIKKDPFAYYRFKLKETYPEFLTMDEIKIILAKEFTIKRVEQVRDVFIFCSYTGLAFSDVKDLSPEHLLKDNKGELWIKIFLSFHSSVFSSKNLHRLNTSLAKSMIQIKF	not soluble
MDMESQKILFALSTPMEIRNECCLPSHSSPKMYLGTCFFDLSSSWGIDDRDDLLRTIHRMIDNGHAARLAGFYHRWFRYSPCEWRDYLAELNEQGQAYAQFVASTAECCGEGGIKAWDYVRMGFLSRMGVLNNWLSEEESLWIQSRIHLRALRYYSNWRQYFAGYTFGRQYWQSPEDDHLPLLREFLARKEYDDSGNDMFYQLFASDDAYYPTLSWQPLAYYSACPETLKDMSDL	not soluble
MGSDKIHHHHHHMEKFIESVANFIDEEDVKVLKAIGSDPIVLHSIKKIFDYPEKANKYLILLRDSPVAVYLVAKISERLSRYLEGEDEAKCFAVFLTALRELRECGDRRVLQNMFLLLKEAIERRLSDGKYEDAAKLVMEFQDFGFKSYVKKVLFFALEVSEEGDYRRAMRILELLPETDAVIDAKASVLLEWGRSLAMSNPEAGMKKIEESLRLKDTVEARLAMAEIHESMGNYEKAYFIYTSLRSLYPGIDRRIARMLMEWGEEIGDVEKLREAYNLAMGDRLLAEEIERRIKKLEAQRLSGS	not soluble
MAHHHHHHMEANGTLVECKRGESDAVVFRFLIIDAPSPSSVPAYMKLLQRHNVMHIVRACGPTYNAEVFEKQGIVVHGWSFDDGASPTQTVIDNWLNLLEQEKNKSPPETIAVHCVSGLGRAPILVALALVEYGGMPPLDAVGYVRGRRKGAINQVQLNWLMRYKPRHQESNEGSLICARCTLM	soluble
SAPFDVIGPQEPILAVVGEDAELPCRLSPNVSAKGMELRWFREKVSPAVFVSREGQEQEGEEMAEYRGRVSLVEDHIAEGSVAVRIQEVKASDDGEYRCFFRQDENYEEAIVHLKVAALGSDPHISMKVQESGEIQLECTSVGWYPEPQVQWRTHRGEEFPSMSESRNPDEEGLFTVRASVIIRDSSMKNVSCCIRNLLLGQEKEVEVSIPASFFPRLT	not soluble
MDDSSEEANQFEPPPAIRKSTRAVNNLSPHQKEVRCQCGTNNTDNRLIKCVECEKWQHAICMSVMPLDIIMTYKCEMCEPRLLMVSRSQARAYQGVEPEPREVRKKGRNQSVNLEEFLEFLSEASENISRPLALTTLFEDYKEHINYPQSVRILRKQLESNLLETISMSPNYYADRKAQMLFAMGLRVKGEFLERLERNAVVEVDGYHRITFYKSKNLEFRGKHRVGRFPLVNRRKSAESTSQQHGNSGEEDDDDIFIDLVVPVTGNSRWNQFPVKQEIPDEQSFGSASTLPNAEIEPNLQYSLSDTMTTGSASTWNMAATPPSEMRGIMMESMNGLHALQSASYPPYQEMQEMLCVQHTMMKSMHEIIKTQSDFYREMFKTRAIAGAPPAPATTSLRAFLHFLKGYVDYLESEQLVDCSRLTQQHLETCRAADKLISMEKLLTGLAVATTIAEAHLSDVSAIINGASAMEFYKFIEIYASNQSNSAFSGLCTDLKQKIQALVNMDKKIPFKELSRAFRTAISLVSQ	not soluble
GPGSMTSPKIKAVFVDMDGTLFNSDHLISPRTAKVIHALEERGVAFVVATGRPFPDVFGNLAQTELRPDFIITSNGARVHDAQHNILFACDMDAESVCRLFQLSPHLSEDGVVDPSVQARRILCNVNCRDRWLTNECIPEVRAAFHPSFIYERVDPMVQTAKTLEGTHSMWIRGAHADLVCVQKYVDRELSGEIRCAFALPHILDCFRKDVNKGAAMEKVCKHLRIDLRETIAFGDGMNDIRMLTAAGQGFVMANAAEMVKQAAPELPVIQSNNEEGVAWKLEELLAADAFVG	soluble
GSVAVEDQPDVSAVLSAYNQQGDPTMYEEYYSGLKHFIECSLDCHRAELSQLFYPLFVHMYLELVYNQHENEAKSFFEKFHGDQECYYQDDLRVLSSLTKKEHMKGNETMLDFRTSKFVLRISRDSYQLLKRHLQEKQNNQIWNIVQEHLYIDIFD	soluble
MGSDKIHHHHHHMQIKALIYFDELVRTRSMRAAAERLNVQPTAFARQIDQLEHYFGTVLIERSSRGIQLTAAGELLAARAGKTLRELNHVHQLIDDLQGLKRGHVTIHANGATVANLLAPALADFSLVYPNIRFSVTISSAGQAMEALSSAKADMAVTLFSEPDPGIRVRARAQIVYDVIAASHHPAAHLAEMTVTELARFPLAVPDGSFGARRAFDAWFSKAGLELDPVFVTGSLEMQRELVLRGAALTLLPAQTVARERRSGELVVIPVAGGAGIRTPIDLCVAGDRQLSFAASKLVDAVERFMREQMGK	not soluble
